In the assay the target is T1, human IL-25R (IL-17BR) on human ILCs/ILC2s from primary CRC samples (human, UniProt Q9NRM6 18-502).
T1 construct: Endogenous receptor on primary patient cells; also called interleukin-17 receptor B
T1 sequence: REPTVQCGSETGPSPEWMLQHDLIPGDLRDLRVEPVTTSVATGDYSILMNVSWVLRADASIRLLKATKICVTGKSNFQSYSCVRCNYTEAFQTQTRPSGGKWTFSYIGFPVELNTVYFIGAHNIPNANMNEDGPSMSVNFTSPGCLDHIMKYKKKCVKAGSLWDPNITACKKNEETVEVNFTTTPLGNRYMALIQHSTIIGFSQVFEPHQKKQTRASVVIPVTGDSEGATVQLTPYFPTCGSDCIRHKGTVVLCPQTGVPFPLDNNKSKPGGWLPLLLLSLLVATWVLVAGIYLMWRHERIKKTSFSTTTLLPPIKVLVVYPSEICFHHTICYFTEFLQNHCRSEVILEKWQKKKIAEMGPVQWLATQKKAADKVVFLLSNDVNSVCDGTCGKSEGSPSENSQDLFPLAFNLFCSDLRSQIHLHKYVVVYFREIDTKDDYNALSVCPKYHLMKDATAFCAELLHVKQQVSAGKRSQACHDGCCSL
In words: Flow cytometry of a primary human CRC sample stained with biotinylated D9.2 plus streptavidin-BV421. Cells were pre-gated on Live CD45+, then Lin- CD4-, CD127+, and CRTH2+ for ILC2. How it is done:
Subsequently, samples were digested with 62.5 μg/mL Liberase TL (Roche) and 0.125 KU/mL DNase I (Sigma) in RPMI+2% FCS+10 mM HEPES at 37° C., shaking, for 45 minutes to collect lamina propria cells. After digestion, cells were passed through a 70 μm cell strainer and washed with PBS+2% FCS before antibody staining. Mesenteric lymph nodes were mechanically dissociated in RPMI, filtered through a 50 μm cell strainer, and washed with PBS+2% FCS before antibody staining. Fresh, surgically-resected human CRC and adjacent normal tissue were collected in sterile PBS and transported on ice before sample processing. Samples were mechanically dissociated into small pieces and digested with 100 μg/mL Liberase TM (Roche) and 0.2 KU/mL DNase I (Sigma) in RPMI, and incubated at 37° C. for 30 minutes. Subsequently, cells were filtered through a 70 μm cell strainer and washed with PBS+2% FCS before antibody staining for flow cytometry.
For surface staining, single cell suspensions were 333 blocked with anti-CD16/32 antibody (Fc block, clone 2.4G2) and Human TruStain FcX (Biolegend, 422302) for mouse and human samples in PBS+2% FCS respectively, and incubated with fluorochrome-conjugated or biotinylated antibodies on ice for 30 minutes in the dark. If necessary, samples were then incubated with fluorochrome-conjugated streptavidin on ice for a further 30 minutes.
(In flow cytometry, cells or beads pass a laser one at a time.)

B1: anti-IL25R monoclonal antibody (clone D9.2) (antibody, V domains shown)
VH: QVQLQQPGAELVRPGASVKLSCKTSGYTFISYWMNWVKQGPEQGLEWIGRIDPYDSEIQYNQKFKDKAILTVDKSSSAAYMQLISLTSEDSAVYYCARSGGFDWFAYWGQGTLVTVSA
VL: DIQMTQSPASLSVSVGETVTITCRASENINSNLAWYQQKKGKSPQLLVYDVTNLADGVPSRFSGSGSGTQYSLKINSLQSEDFGSYYCQHFWRPPYTFGGGTNLEIK
notes: Murine antibody; also called IL17BR (D9.2, AF647); IL17BR (D9.2, biotin)
For the molecule B1, the binding result is “binds”.

(Values after patent publication US20240343794A1 (UNITED KINGDOM RESEARCH AND INNOVATION, published 2024).)
